Patent US20140154243A1 (Amgen, published 2014)

B1: antibody 2.12.1 (antibody, human IgG2, kappa, V domains shown)
VH: QVQLQESGPGLVKPSETLSLTCTVSGGSISIYYWSWIRQPPGKGLEWIGYVYYSGSTNYNPSLKSRVTISVDTSKNQFSLKLNSVTAADTAVYYCARGGYDFWSGYFDYWGQGTLVTVSS
VL: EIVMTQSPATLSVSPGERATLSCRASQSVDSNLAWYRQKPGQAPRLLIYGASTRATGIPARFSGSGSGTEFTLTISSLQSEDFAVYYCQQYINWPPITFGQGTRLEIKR
B2: antibody 2.4.4 (antibody, human IgG2, kappa, V domains shown)
VH: QVQLKESGPGLVKPSQTLSLTCTVSGGSISSGVYYWSWIRQHPGKGLEWIGYFYYSGNTYHNPSLKSRVTISVDTSKNQFSLKLSSVTAADTAVYYCARDRSGYDHPDAFDIWGQGTMVTVSS
VL: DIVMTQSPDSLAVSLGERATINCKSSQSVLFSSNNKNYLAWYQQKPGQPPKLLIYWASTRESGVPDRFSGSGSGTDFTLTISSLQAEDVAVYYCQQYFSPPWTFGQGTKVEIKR
notes: also called FITC-labeled antibody 2.4.4

Columns and labels:
[1] = target: T1, human hepatocyte growth factor (HGF) (human, UniProt P14210 32-728); test: neutralization ELISA (left table): inhibition of the binding of soluble Met (2 nM) to plate-coated HGF, detected with biotinylated anti-cMetR antibody and Eu-streptavidin; column head 'IC50 IP (nM)'
T1 construct: Recombinant protein; The mature protein is a heterodimer of the alpha and beta subunits; also called human HGF; full length HGF
Method: A neutralization ELISA assay was developed to assess whether the antibodies discussed in Example 6 could interrupt Met-HGF binding. Delphia 96-well plates (Cat#: AAAND-0001, Wallac Inc., Gaithersburg, Md.) were coated with HGF by adding 100 μl of HGF at 6.25 μg/ml per well. The plates were incubated at 37° C. for 1 hour or at 4° C. overnight. The plates were then blocked with 5% BSA (Cat#50-61-00, KPL, Gaithersburg, Md.) in PBS containing 0.1% Tween 20 for 1 hour at room temperature with shaking.
Test samples were prepared by separately mixing soluble Met (2 nM, 0.256 μg/ml) with different concentrations of a particular antibody to HGF being tested. The concentrations tested were: 667 nM, 223 nM, 74.1 nM, 24.7 nM, 8.2 nM, 2.7 nM, 0.91 nM, 0.30 nM, 0.10 nM, and 0.034 nM. A volume of 100 μl of a test sample was added to each well of the plates. The plates were then incubated at 4° C. overnight and then washed 4 times with PBS containing 0.1% Tween 20. Next, 100 μl per well of Biotinylated anti-cMetR antibody (Cat#: BAF358, R&D Systems Inc., Minneapolis, Minn.) at 2 μg/ml, was added. […] The plates were then incubated for 2 hours with shaking, and were washed 4 times with PBS containing 0.1% Tween 20. Eu-streptavidin (1:1000 dilution in Assay buffer) (Cat#1244-360, Wallac Inc., Gaithersburg, Md.) was added and the plates were shaken at room temperature for 1 hour. The plates were then washed 4 times with PBS containing 0.1% Tween 20. Next, 100 μl of enhancement buffer (Wallac Inc., Cat#: 1244-105, Gaithersburg, Md.) was added. After at least for 5 minutes, the plates were read using Europium method on Victor 2 (1420 Multilabel Counter, Wallac Inc., Gaithersburg, Md.).
Percent inhibition of Met binding to HGF (i.e. neutralization) was calculated and IC₅₀ values were determined using the 4 parameter fit equation Excelfit, Version 2.0.6, (Microsoft Inc, Seattle, Wash.). In the presence of the antibodies to HGF discussed in Examples 6, Met binding to HGF was neutralized.

[2] = target: T1, human hepatocyte growth factor (HGF); test: BIAcore 3000, equilibrium/solution method: antibody (0.01-50 nM) incubated with human HGF (0.05 nM and 1 nM), free HGF measured on a chip carrying the same antibody
Method: That method was performed with a BIAcore®3000 (Biacore, Inc., Piscataway, N.J.) using PBS with 0.005% P20 surfactant (BIAcore, Inc. Piscataway, N.J.) as running buffer. The four antibodies to HGF were separately immobilized to research grade CM5 sensor chips (Biacore, Inc. Piscataway, N.J.) via primary amine groups using an Amine Coupling Kit (Biacore, Inc. Piscataway, N.J.) following the manufacturer's instructions.
In separate assays, each of the four antibodies to HGF, over a range of concentrations (from 0.01 nM to 50 nM) was separately incubated with each of two different concentrations (0.05 nM and 1 nM) of human HGF in PBS with 0.005% P-20 and 0.1 mg/mL BSA at room temperature for at least six hours. Each of those samples was then injected over a surface of a CM5 sensor chip onto which the same antibody to HGF had been immobilized. The binding signal obtained was proportional to the free HGF in solution. The dissociation equilibrium constant (KD) was obtained from nonlinear regression analysis of the competition curves using a dual-curve one-site homogeneous binding model (KinExA software, Sapidyne Instruments Inc., Boise Id.).

mouse HGF = target: T2, mouse HGF (mouse, UniProt Q08048 33-728); test: FACS bead assay: antibody incubated with the avidin fusion of mouse HGF, captured on biotin-coated beads; FITC anti-avidin (x) against PE goat anti-human F(ab')2 (y)
T2 construct: also called recombinant mouse HGF; mHGF
Method: After incubation, the fusion proteins in each sample were separately captured using biotin-coated beads (Spherotech Inc., Libertyville, Ill., Cat # TP-60-5). The resulting bead-protein complexes were labeled by adding FITC labeled anti-avidin antibody (Vector Lab, Burlingame, Calif., Cat. # SP-2040). The presence of antibodies to HGF was determined by adding phycoerythrin (PE) labeled goat anti-human F(ab′)2 antibody (Southern Biotech Associates, Inc, Birmingham, Ala., Cat #2043-09).
Those samples were then subjected to Fluorescence Activated Cell Sorter (FACS) analysis. Bead complexes labeled by FITC (which indicated the presence of avidin) and/or PE (which indicated the presence of antibody to HGF) were detected on a Becton Dickinson Bioscience FACScan (BD, Franklin Lakes, N.J.).

[3] = target: T1, human hepatocyte growth factor (HGF); test: cell-based or functional assay
[4] = target: T1, human hepatocyte growth factor (HGF); test: BIAcore 3000, kinetic method: antibody captured on immobilized Protein G, human HGF (0-100 nM) injected
From the text: The running buffer for those analyses was PBS with 0.005% P20 surfactant (BIAcore, Inc. Piscataway, N.J.). Recombinant Protein G (Pierce, Rockford, Ill.) was immobilized to a research grade CM5 sensor chip (Biacore, Inc. Piscataway, N.J.) via primary amine groups using the Amine Coupling Kit (Biacore, Inc. Piscataway, N.J.), according to the manufacturer's instructions.
In six separate samples, about 200 resonance units (RU) of each of the six antibodies to HGF was separately attached to immobilized Protein G following the manufacturer's instructions. Samples comprising various concentrations (0-100 nM) of human HGF were injected over the bound antibody surface at a flow rate of 50 μl/min for 3 minutes. Antibody binding kinetic parameters including kₐ (association rate constant), kd (dissociation rate constant), and KD (dissociation equilibrium constant) were determined using the BIA evaluation 3.1 computer program (BIAcore, Inc. Piscataway, N.J.). Lower dissociation equilibrium constants indicate greater affinity of the antibody for HGF.

T1 sequence (P14210 32-728 limits assumed): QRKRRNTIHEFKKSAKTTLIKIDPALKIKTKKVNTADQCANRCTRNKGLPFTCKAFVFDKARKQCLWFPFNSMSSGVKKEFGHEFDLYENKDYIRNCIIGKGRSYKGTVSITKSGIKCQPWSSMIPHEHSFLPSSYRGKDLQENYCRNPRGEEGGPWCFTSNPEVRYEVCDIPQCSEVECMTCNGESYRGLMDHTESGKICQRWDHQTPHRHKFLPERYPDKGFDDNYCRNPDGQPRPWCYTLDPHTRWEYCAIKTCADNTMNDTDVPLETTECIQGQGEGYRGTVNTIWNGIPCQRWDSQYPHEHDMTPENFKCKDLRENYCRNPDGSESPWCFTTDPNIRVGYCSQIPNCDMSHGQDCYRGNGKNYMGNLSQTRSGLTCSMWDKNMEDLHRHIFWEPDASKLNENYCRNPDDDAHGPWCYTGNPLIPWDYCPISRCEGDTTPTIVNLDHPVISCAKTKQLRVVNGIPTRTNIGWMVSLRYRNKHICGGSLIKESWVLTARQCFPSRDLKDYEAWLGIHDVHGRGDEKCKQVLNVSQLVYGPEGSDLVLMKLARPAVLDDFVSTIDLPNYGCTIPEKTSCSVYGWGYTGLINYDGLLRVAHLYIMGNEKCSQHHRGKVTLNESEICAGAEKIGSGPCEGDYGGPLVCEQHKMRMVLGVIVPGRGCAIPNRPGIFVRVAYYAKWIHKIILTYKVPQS
T2 sequence (Q08048 33-728 limits assumed): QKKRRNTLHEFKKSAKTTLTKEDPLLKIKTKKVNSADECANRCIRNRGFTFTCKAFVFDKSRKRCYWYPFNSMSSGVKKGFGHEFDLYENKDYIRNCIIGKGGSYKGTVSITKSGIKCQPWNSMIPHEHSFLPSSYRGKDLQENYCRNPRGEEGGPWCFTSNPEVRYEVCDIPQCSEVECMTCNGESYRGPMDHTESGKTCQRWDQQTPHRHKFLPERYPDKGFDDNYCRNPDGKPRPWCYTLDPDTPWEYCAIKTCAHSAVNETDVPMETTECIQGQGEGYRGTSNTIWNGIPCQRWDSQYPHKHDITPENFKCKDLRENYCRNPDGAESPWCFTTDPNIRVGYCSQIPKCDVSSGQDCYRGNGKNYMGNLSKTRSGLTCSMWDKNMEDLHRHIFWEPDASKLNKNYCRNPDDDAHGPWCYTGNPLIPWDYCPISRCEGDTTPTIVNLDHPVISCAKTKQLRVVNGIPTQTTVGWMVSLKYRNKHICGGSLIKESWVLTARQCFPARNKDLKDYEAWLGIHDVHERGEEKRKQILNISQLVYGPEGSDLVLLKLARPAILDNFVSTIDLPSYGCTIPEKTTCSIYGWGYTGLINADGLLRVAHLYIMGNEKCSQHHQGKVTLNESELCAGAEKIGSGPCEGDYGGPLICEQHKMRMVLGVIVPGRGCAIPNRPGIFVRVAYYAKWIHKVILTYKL

Binder | IC50 [1] [pM] | Kd [2] [pM] | binding result (mouse HGF) | IC50, inhibition of growth/survival of U-87 MG cells [3] [pM] | Kd [4] [pM] | koff [4] [s⁻¹] | kon [4] [M⁻¹ s⁻¹]
B1 | 2100 | 54 | no binding | < 100000 | ~220 | 2.8e-05 | 130000
B2 | 5100 | < 10 | no binding | < 100000 | ~99 | 2.7e-05 | 270000
